Our source for the fold increase of Atg5–Atg12 in the Atg16 immunoprecipitate, ASPP1 knock-down against control cells (H1299) and fold increase of Atg5–Atg12 in the Atg16 immunoprecipitate, ASPP1 knock-down against control cells (HCT116) values is publication PMC5520923.

In the experiment the target is Atg16 (human (endogenous in HCT116 and H1299)) (UniProt Q676U5). In words: co-IP; lysates of HCT116/Shnon and HCT116/ShASPP1 cells (also H1299 with ASPP1 knock-down, Supplementary Figure 3B) immunoprecipitated with anti-Atg16 antibody; co-precipitated proteins detected by western blot.
Chain of UniProt Q676U5 (Q676U5 whole entry): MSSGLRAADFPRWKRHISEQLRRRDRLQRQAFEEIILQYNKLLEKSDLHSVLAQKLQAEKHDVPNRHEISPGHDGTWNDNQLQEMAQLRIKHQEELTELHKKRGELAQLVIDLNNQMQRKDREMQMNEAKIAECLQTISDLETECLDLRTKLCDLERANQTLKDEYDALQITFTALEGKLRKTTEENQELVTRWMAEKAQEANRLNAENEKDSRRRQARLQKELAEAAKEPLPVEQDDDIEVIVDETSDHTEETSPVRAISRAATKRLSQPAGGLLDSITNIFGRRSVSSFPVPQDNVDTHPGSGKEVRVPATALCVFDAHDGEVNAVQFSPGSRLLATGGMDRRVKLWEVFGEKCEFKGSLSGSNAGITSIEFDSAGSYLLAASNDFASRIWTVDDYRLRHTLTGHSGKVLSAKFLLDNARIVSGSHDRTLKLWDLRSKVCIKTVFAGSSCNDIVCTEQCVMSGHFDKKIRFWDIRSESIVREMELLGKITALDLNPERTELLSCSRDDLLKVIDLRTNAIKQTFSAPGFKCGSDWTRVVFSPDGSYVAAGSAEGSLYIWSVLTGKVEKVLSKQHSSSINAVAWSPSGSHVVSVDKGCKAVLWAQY

“Atg5–Atg12 conjugate (from UniProt Q9H1Y0 1-275; O94817 1-140) (complex)” gave a fold increase of Atg5–Atg12 in the Atg16 immunoprecipitate, ASPP1 knock-down against control cells (H1299) of 2 fold and a fold increase of Atg5–Atg12 in the Atg16 immunoprecipitate, ASPP1 knock-down against control cells (HCT116) of 2 fold.
